Data taken from publication PMC9026390.

What was measured:
[1] = target: VvGH17 C-terminal-truncated mutant ΔC466 (Vibrio vulnificus); assay: native gel or EMSA; blue native PAGE, 5–10% gradient gel, 4 °C, 150 V for 3.5 h; 50 mM tricine, 15 mM bis-Tris/HCl, pH 7; cathode buffer with 0.02% Coomassie blue G250; monomer to trimer
[2] = target: glycoside hydrolase family 17 β-1,3-glucanase of Vibrio vulnificus (VvGH17), wild type (Vibrio vulnificus); assay: as above

Row | stoichiometry N [2] | Substance | stoichiometry N [1]
1 |  | VvGH17 C-terminal-truncated mutant ΔC466 (domain or fragment) | 3
2 | 3 | glycoside hydrolase family 17 β-1,3-glucanase of Vibrio vulnificus (VvGH17), wild type (enzyme) | 
